From article PMC3173369, “Mitochondrial Inhibitory Factor 1 (IF1) Is Present in Human Serum and Is Positively Correlated with HDL-Cholesterol” (PLoS ONE, 2011) come the findings set out here.

This data set deals with the molecule itself. The experiment in a line: SDS-PAGE and Western blot after immunoprecipitation; 2 µg purified rIF1 immunoprecipitated with anti-IF1 antibodies cross-linked on protein A/G resin, eluted in 0.2 M glycine pH 2.8, boiled in Laemmli buffer with SDS and DTT, 15% SDS-PAGE, blot with anti-IF1; bands at the size of monomer and dimer. (In general: Immunoblotting shows a protein as a band on a membrane.)

B1: Recombinant human IF1 (mitochondrial Inhibitory Factor 1) (natural protein, UniProt Q9UII2-1 26-106, looked up)
chain: GSDQSENVDRGAGSIREAGGAFGKREQAEEERYFRAQSREQLAALKKHHEEEIVHHKKEIERLQKEIERHKQKIKMLKHDD
notes: mature peptide without the mitochondrial targeting signal, amplified from HeLa cell cDNA; Cloned at BamHI/HindIII into pBEn-SBP-SET1-Qa (Stratagene); also called rIF1; recombinant IF1
In the case of B1, the stoichiometry N (as a rule, a count of units in the complex or per binding partner) was 2.
